Source: paper doi:10.1101/2025.04.28.648957 (bioRxiv, 2025)
Changes are numbered by the printed parent chain. Names may count otherwise.

B1: tag-cleaved SSNA1 1-90 (domain or fragment, human)
chain: GPMTQQGAALQNYNNELVKCIEELCQKREELCRQIQEEEDEKQRLQNEVRQLTEKLARVNENLARKIASRNEFDRTIAETEAAYLKILESSQ
B2: tag-cleaved SSNA1 S89A (natural protein, human)
chain: GPMTQQGAALQNYNNELVKCIEELCQKREELCRQIQEEEDEKQRLQNEVRQLTEKLARVNENLARKIASRNEFDRTIAETEAAYLKILESAQTLLSVLKREAGNLTKATAPDQKSSGGRDS
B3: tag-cleaved SSNA1 S89D (natural protein, human)
chain: B2 chain with A91D
B4: tag-cleaved SSNA1 (full-length human SSNA1, 1-119) (natural protein)
chain: B2 chain with A91S
B5: tag-cleaved SSNA1 1-97 (domain or fragment, human)
chain: GPMTQQGAALQNYNNELVKCIEELCQKREELCRQIQEEEDEKQRLQNEVRQLTEKLARVNENLARKIASRNEFDRTIAETEAAYLKILESSQTLLSVLK
B6: tag-cleaved SSNA1 1-104 (domain or fragment, human)
chain: GPMTQQGAALQNYNNELVKCIEELCQKREELCRQIQEEEDEKQRLQNEVRQLTEKLARVNENLARKIASRNEFDRTIAETEAAYLKILESSQTLLSVLKREAGNLT

Assays:
SEC-MALS = target: the molecule itself; test: SEC-MALS
negative-staining TEM = target: the molecule itself; test: negative-staining TEM
SEC = target: the molecule itself; test: SEC

| Protein | stoichiometry N (SEC-MALS) | binding result (negative-staining TEM) | binding result (SEC) |
| --- | --- | --- | --- |
| B1 | 2 | – | – |
| B2 | – | binds | – |
| B3 | 2 | – | – |
| B4 | – | – | binds |
| B5 | – | binds | – |
| B6 | – | – | binds |
